Test results: patent publication US11814435B2, “Therapeutic antibodies and their uses” (PFIZER INC., priority 2015, dated 2023)
Where a chain is given by its changes, count along the chain named.

B1: L1.LGF/L3.NY/H3.AP: anti-BCMA antibody (antibody, V domains shown)
VH: EVQLLESGGGLVQPGGSLRLSCAASGFTFGSYAMTWVRQAPGKGLEWVSAISGSGGNTFYADSVKGRFTISRDNSKNTLYLQMNSLRAEDTAVYYCARVSPIAAPMDYWGQGTLVTVSS
VL: EIVLTQSPGTLSLSPGERATLSCRASQSLGSFYLAWYQQKPGQAPRLLIYGASSRATGIPDRFSGSGSGTDFTLTISRLEPEDFAVYYCQHYNYPPSFTFGQGTKVEIK
B2: L1.GDF/L3.KW/H3.AP: anti-BCMA antibody (antibody, V domains shown)
VH: B1 VH
VL: B1 VL with L29V, S31D, Q90K, N93G, Y94W
B3: L1.LGF/L3.KW/H3.AP: anti-BCMA antibody (antibody, V domains shown)
VH: B1 VH
VL: B1 VL with Q90K, N93G, Y94W
B4: L1.GDF/L3.KW/H3.AL: anti-BCMA antibody (antibody, V domains shown)
VH: B1 VH with P105L
VL: B1 VL with L29V, S31D, Q90K, N93G, Y94W
B5: L1.LGF/L3.PY/H3.AP: anti-BCMA antibody (antibody, V domains shown)
VH: B1 VH
VL: B1 VL with N93P
B6: L1.GDF/L3.NY/H3.AP: anti-BCMA antibody (antibody, V domains shown)
VH: B1 VH
VL: B1 VL with L29V, S31D
B7: L1.GDF/L3.NY/H3.AL: anti-BCMA antibody (antibody, V domains shown)
VH: B1 VH with P105L
VL: B1 VL with L29V, S31D
B8: L1.LGF/L3.KW/H3.AL: anti-BCMA antibody (antibody, V domains shown)
VH: B1 VH with P105L
VL: B1 VL with Q90K, N93G, Y94W
B9: L1.LGF/L3.NY/H3.AL: anti-BCMA antibody (antibody, V domains shown)
VH: B1 VH with P105L
VL: B1 VL
B10: L3.PY/L3.KF/H3.YA: anti-BCMA antibody (antibody, V domains shown)
VH: B1 VH with A103Y, P105G
VL: B1 VL with L29V, G30S, F32S, Q90K, H91F, N93P
B11: L3.PY/H3.YA: anti-BCMA antibody (antibody, V domains shown)
VH: B1 VH with A103Y, P105G
VL: B1 VL with L29V, G30S, F32S, N93P
B12: L3.PY/H2.QR: anti-BCMA antibody (antibody, V domains shown)
VH: B1 VH with S63Q, V64R, A104S, P105G
VL: B1 VL with L29V, G30S, F32S, N93P
B13: L3.PY/H2.YQ: anti-BCMA antibody (antibody, V domains shown)
VH: B1 VH with G53Y, S54Q, A104S, P105G
VL: B1 VL with L29V, G30S, F32S, N93P
B14: L3.PY/L3.KF/H3.TAQ: anti-BCMA antibody (antibody, V domains shown)
VH: B1 VH with A97T, P105Q
VL: B1 VL with L29V, G30S, F32S, Q90K, H91F, N93P
B15: L3.PY/L3.KF/H3.AE: anti-BCMA antibody (antibody, V domains shown)
VH: B1 VH with P105E
VL: B1 VL with L29V, G30S, F32S, Q90K, H91F, N93P
B16: L3.PY/H2.LT: anti-BCMA antibody (antibody, V domains shown)
VH: B1 VH with G53L, S54T, A104S, P105G
VL: B1 VL with L29V, G30S, F32S, N93P
B17: L3.PY/H2.HA: anti-BCMA antibody (antibody, V domains shown)
VH: B1 VH with G53H, S54A, A104S, P105G
VL: B1 VL with L29V, G30S, F32S, N93P
B18: L3.PY/H2.QL: anti-BCMA antibody (antibody, V domains shown)
VH: B1 VH with S63Q, V64L, A104S, P105G
VL: B1 VL with L29V, G30S, F32S, N93P
B19: L3.PY/H2.DY: anti-BCMA antibody (antibody, V domains shown)
VH: B1 VH with S52D, G53Y, A104S, P105G
VL: B1 VL with L29V, G30S, F32S, N93P

These molecules were tested on cyBCMA (assay: Kinetics and affinity of cyBCMA/human IgG interactions by SPR (Bio-Rad Proteon XPR36)). Settings: 25° C.
Format: binding, cynomolgus

B1 and B2 are within 1.5-fold of each other in “ka (1/Ms) cyBCMA @ 25° C.” value: 830000 M⁻¹ s⁻¹ for the first, 814000 M⁻¹ s⁻¹ for the second.

Going from B3 to B4, the “ka (1/Ms) cyBCMA @ 25° C.” value falls from 554000 M⁻¹ s⁻¹ to 318000 M⁻¹ s⁻¹ (1.7-fold).

Compared with B5, B6 is 3.7-fold higher in “ka (1/Ms) cyBCMA @ 25° C.” value: 364000 M⁻¹ s⁻¹ for the first, 1.36e+06 M⁻¹ s⁻¹ for the second.

First: B7
Second: B8
The “ka (1/Ms) cyBCMA @ 25° C.” value of the first is 3.1-fold higher: 900000 M⁻¹ s⁻¹ for the first, 290000 M⁻¹ s⁻¹ for the second.

With B9 the “ka (1/Ms) cyBCMA @ 25° C.” value was 635000 M⁻¹ s⁻¹.

Compared with B1, B2 is 3.6-fold higher in “kd (1/s) cyBCMA @25° C.” value: 0.00557 s⁻¹ for the first, 0.0203 s⁻¹ for the second.

B3 and B4 are within 1.5-fold of each other in “kd (1/s) cyBCMA @25° C.” value: 0.0154 s⁻¹ for the first, 0.018 s⁻¹ for the second.

First: B5
Second: B6
The “kd (1/s) cyBCMA @25° C.” value of the first is 1.9-fold higher: 0.013 s⁻¹ for the first, 0.00702 s⁻¹ for the second.

First: B7
Second: B8
The “kd (1/s) cyBCMA @25° C.” value of the first is 1.8-fold higher: 0.0219 s⁻¹ for the first, 0.0121 s⁻¹ for the second.

For B9, the “kd (1/s) cyBCMA @25° C.” value was 0.0148 s⁻¹.

Same assay, conditions: 37° C.

B10 and B11 are within 1.5-fold of each other in “ka (1/Ms) cyBCMA @ 37° C.” value: 2.1e+06 M⁻¹ s⁻¹ for the first, 2.87e+06 M⁻¹ s⁻¹ for the second.

B12 and B13 are within 1.5-fold of each other in “ka (1/Ms) cyBCMA @ 37° C.” value: 2.18e+06 M⁻¹ s⁻¹ for the first, 2.46e+06 M⁻¹ s⁻¹ for the second.

B14 and B15 are within 1.5-fold of each other in “ka (1/Ms) cyBCMA @ 37° C.” value: 2.01e+06 M⁻¹ s⁻¹ for the first, 1.85e+06 M⁻¹ s⁻¹ for the second.

B16 and B17 are within 1.5-fold of each other in “ka (1/Ms) cyBCMA @ 37° C.” value: 2.09e+06 M⁻¹ s⁻¹ for the first, 1.99e+06 M⁻¹ s⁻¹ for the second.

B18 and B19 are within 1.5-fold of each other in “ka (1/Ms) cyBCMA @ 37° C.” value: 2.05e+06 M⁻¹ s⁻¹ for the first, 2.24e+06 M⁻¹ s⁻¹ for the second.

B10 and B11 are within 1.5-fold of each other in “kd (1/s) cyBCMA @37° C.” value: 0.00796 s⁻¹ for the first, 0.0054 s⁻¹ for the second.

B12 and B13 are within 1.5-fold of each other in “kd (1/s) cyBCMA @37° C.” value: 0.00658 s⁻¹ for the first, 0.00621 s⁻¹ for the second.

Compared with B14, B15 is 3-fold higher in “kd (1/s) cyBCMA @37° C.” value: 0.00191 s⁻¹ for the first, 0.00564 s⁻¹ for the second.

B16 and B17 are within 1.5-fold of each other in “kd (1/s) cyBCMA @37° C.” value: 0.00757 s⁻¹ for the first, 0.00755 s⁻¹ for the second.

First: B18
Second: B19
The “kd (1/s) cyBCMA @37° C.” value of the first is 2-fold higher: 0.0126 s⁻¹ for the first, 0.00618 s⁻¹ for the second.

The molecules below were run against T1, hBCMA (human BCMA) (Homo sapiens, UniProt Q02223) (assay: Kinetics and affinity of hBCMA/human IgG interactions by SPR (Bio-Rad Proteon XPR36)). Settings: huBCMA, 25° C.
T1 sequence (Q02223 1-184): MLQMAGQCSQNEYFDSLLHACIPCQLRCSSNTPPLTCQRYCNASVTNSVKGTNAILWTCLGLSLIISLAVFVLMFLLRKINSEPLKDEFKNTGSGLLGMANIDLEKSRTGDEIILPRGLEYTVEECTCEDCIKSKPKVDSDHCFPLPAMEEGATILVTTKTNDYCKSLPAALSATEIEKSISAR
Format: binding
Procedure: All experiments were performed on a Bio-Rad Proteon XPR36 surface Plasmon resonance biosensor (Bio-Rad, Hercules, Calif.). An array of anti-BCMA antibodies was prepared using an amine-coupling method on a Bio-Rad GLC Sensor Chip similar to that described in Abdiche, et al., Anal. Biochem. 411, 139-151 (2011). The analysis temperature for the immobilization was 25° C. and the running buffer was HBS-T+(10 mM HEPES, 150 mM NaCl, 0.05% Tween-20, pH 7.4). Channels were activated in the analyte (horizontal) direction by injecting a mixture of 1 mM ECD and 0.25 mM NHS for 3 minutes at a flow rate of 30 μL/min. IgGs were immobilized on the activated spots by injecting them in the ligand (vertical) direction at 20 μg/mL in 10 mM Acetate pH 4.5 buffer for 1.5 minutes at […]. The activated surfaces were blocked by injecting 1M ethanolamine, pH 8.5 in the analyte direction for 3 minutes at 30 μL/min.
The analysis temperature for the hBCMA binding analysis was 37° C. or 25° C. in a running buffer of HBS-T+, supplemented with 1 mg/mL BSA. A kinetic titration method was employed for the interaction analysis as described in Abdiche, et al. The hBCMA (human BCMA) analyte was injected in the analyte direction using a series of injections from low to high concentration. The concentrations used were 0.08 nM, 0.4 nM, 2 nM, 10 nM and 50 nM (a 5-membered series, with a 5-fold dilution factor and top concentration of 50 nM). The association time for a given analyte dilution was two minutes. Immediately after the 50 nM hBCMA injection, dissociation was monitored for 2 hours. Prior to the hBCMA analyte injections, buffer was injected 5 times using the same association and dissociation times at the hBCMA analyte cycles to prepare a buffer blank sensorgram for double-referencing purposes (double referencing as described in Myszka, J. Mol. Recognit. 12, 279-284 (1999).
The sensorgrams were double-referenced and fit to a 1:1 Langmuir with mass transport kinetic titration model in BIAevaluation Software version 4.1.1 (GE Lifesciences, Piscataway, N.J.). The sensorgrams and fits are shown in FIG. 1, and the kinetics and affinity parameters for various anti-BCMA antibodies of the present invention are shown in Tables 6A-6C.

B1 and B2 are within 1.5-fold of each other in “ka (1/Ms) huBCMA @ 25° C.” value: 936000 M⁻¹ s⁻¹ for the first, 1.17e+06 M⁻¹ s⁻¹ for the second.

Going from B3 to B4, the “ka (1/Ms) huBCMA @ 25° C.” value falls from 928000 M⁻¹ s⁻¹ to 445000 M⁻¹ s⁻¹ (2.1-fold).

Going from B5 to B6, the “ka (1/Ms) huBCMA @ 25° C.” value rises from 457000 M⁻¹ s⁻¹ to 1.41e+06 M⁻¹ s⁻¹ (3.1-fold).

First: B7
Second: B8
The “ka (1/Ms) huBCMA @ 25° C.” value of the first is 2.1-fold higher: 907000 M⁻¹ s⁻¹ for the first, 428000 M⁻¹ s⁻¹ for the second.

For B9, the “ka (1/Ms) huBCMA @ 25° C.” value was 763000 M⁻¹ s⁻¹.

Going from B1 to B2, the “kd (1/s) huBCMA @25° C.” value rises from 0.000533 s⁻¹ to 0.00461 s⁻¹ (8.6-fold).

Going from B3 to B4, the “kd (1/s) huBCMA @25° C.” value rises from 0.00227 s⁻¹ to 0.0039 s⁻¹ (1.7-fold).

B5 and B6 are within 1.5-fold of each other in “kd (1/s) huBCMA @25° C.” value: 0.000969 s⁻¹ for the first, 0.00141 s⁻¹ for the second.

Compared with B7, B8 is 3.3-fold lower in “kd (1/s) huBCMA @25° C.” value: 0.00403 s⁻¹ for the first, 0.00123 s⁻¹ for the second.

For B9, the “kd (1/s) huBCMA @25° C.” value was 0.00097 s⁻¹.

Same assay, conditions: huBCMA, 37° C.

B10 and B11 are within 1.5-fold of each other in “ka (1/Ms) huBCMA @ 37° C.” value: 3.12e+06 M⁻¹ s⁻¹ for the first, 3.15e+06 M⁻¹ s⁻¹ for the second.

B12 and B13 are within 1.5-fold of each other in “ka (1/Ms) huBCMA @ 37° C.” value: 2.56e+06 M⁻¹ s⁻¹ for the first, 2.58e+06 M⁻¹ s⁻¹ for the second.

B14 and B15 are within 1.5-fold of each other in “ka (1/Ms) huBCMA @ 37° C.” value: 2.82e+06 M⁻¹ s⁻¹ for the first, 3.07e+06 M⁻¹ s⁻¹ for the second.

B16 and B17 are within 1.5-fold of each other in “ka (1/Ms) huBCMA @ 37° C.” value: 2.4e+06 M⁻¹ s⁻¹ for the first, 2.43e+06 M⁻¹ s⁻¹ for the second.

B18 and B19 are within 1.5-fold of each other in “ka (1/Ms) huBCMA @ 37° C.” value: 2.64e+06 M⁻¹ s⁻¹ for the first, 2.6e+06 M⁻¹ s⁻¹ for the second.

B10 and B11 are within 1.5-fold of each other in “kd (1/s) huBCMA @37° C.” value: 0.00147 s⁻¹ for the first, 0.00118 s⁻¹ for the second.

B12 and B13 are within 1.5-fold of each other in “kd (1/s) huBCMA @37° C.” value: 0.00119 s⁻¹ for the first, 0.00156 s⁻¹ for the second.

B14 and B15 are within 1.5-fold of each other in “kd (1/s) huBCMA @37° C.” value: 0.00162 s⁻¹ for the first, 0.00155 s⁻¹ for the second.

B16 and B17 are within 1.5-fold of each other in “kd (1/s) huBCMA @37° C.” value: 0.00129 s⁻¹ for the first, 0.00147 s⁻¹ for the second.

Compared with B18, B19 is 1.6-fold lower in “kd (1/s) huBCMA @37° C.” value: 0.00218 s⁻¹ for the first, 0.00138 s⁻¹ for the second.
